According to paper PMC2112199 (The Journal of Cell Biology, 1982):
Where “and” joins values, the source holds several entries; their conditions need not be identical. Equal values may be shown once. Read-outs that look alike come from different tables or passages of the source.

Assays:
[1] = target: Acanthamoeba actin (Acanthamoeba)
[2] = target: Rabbit skeletal muscle actin (rabbit, UniProt P68135 1-377); assay: inhibition of actin polymerization by profilin
[3] = target: Acanthamoeba actin (Acanthamoeba); assay: critical concentration of actin polymerization at steady state

B1: Acanthamoeba profilin (natural protein)
chain: SWQTYVDTNLVGTGAVTQAAILGLDGNTWATSAGFAVTPAQGQTLASAFNNADPIRASGFDLAGVHYVTLRADDRSIYGKKGSAGVITVKTSKSILVGVYNEKIQPGTAANVVEKLADYLIGQGF
[1]
  Kd: 4 µM and 3.1 µM and 3.7 µM
[2]
  Kd: > 30 µM
[3]
  Kd: 900 nM and 1400 nM and 1300 nM
